Source: the supplement of paper PMC9732359
± gives the uncertainty stated by the source.

assay: protein stability index of a GFP-peptide fusion (yeast GPS) (PSI 1-4); higher = more stable; sorted into four equal gates, so the index is relative within each strain; details: san1∆
Procedure, shortened: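 For each peptide, the protein stability index sums the read frequency in every gate after multiplying it by the gate number. Read frequencies came from plasmids that were PCR-amplified from each gate and Illumina-sequenced, with reads assigned to strains by barcodes. The gates were four equal bins of GFP/Cherry fluorescence ratio applied to mid-log yeast in leucine-free medium carrying a pooled library of tiled 17-residue yeast protein peptides fused downstream of GFP on a Cherry-expressing plasmid.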

Row | Sequence | protein stability index
1 | SASLKKIQQHNTILNSS [BRR2] | 2.79 ± 0.032

same assay, conditions: ubr1∆

Row | Sequence | protein stability index
2 | RESLIMLLEEQLEYKRG [MED7] | 2.75 ± 0.057
3 | RFMKGRRSKQLINLAKT [RPC82] | 2.62 ± 0.12
4 | RFTKFSDTLKEFKIEQN [YDL116W/NUP84] | 1.45 ± 0.058
5 | RGNTKIHSMNENPTPEK [SIR3] | 3.31 ± 0.067
6 | RGTIPLLERYIGNLITR [PRP8] | 1.6 ± 0.039
7 | RGYTCQFVDMVLPNTAL [FAS1] | 1.53 ± 0.05
8 | RHKNKHIQGFPTLGERL [DSN1] | 3.44 ± 0.076
9 | RHMVDDKIHARARGPMQ [RPB2] | 2.7 ± 0.16
10 | RIIGLSATLPNYEDVGR [BRR2] | 1.94 ± 0.039
11 | RILAMCVKNHGQSSSIQ [YCS4] | 1.94 ± 0.054
12 | RILKNKAEYLKNCPITQ [RPC40] | 2.83 ± 0.037
13 | RIPFSERKLKFSNRFLP [FAS1] | 1.31 ± 0.084
14 | RITNSFYSTNSQYFKFK [RPN9] | 2.83 ± 0.16
15 | RKALPKEPKKLLPNSKN [DSN1] | 2.87 ± 0.05
16 | RKAYFTAPSSERRVLLS [RPL26B] | 1.66 ± 0.045
17 | RKAYFTAPSSQRRVLLS [RPL26A] | 1.74 ± 0.047
18 | RKCCNHPYLFEGAEPGP [ISW2] | 3.2 ± 0.052
19 | RKFKSRRCDDMLYYIQN [POP4] | 2.85 ± 0.048
20 | RKHRNAQFAGRASIEYY [DIS3] | 2.99 ± 0.094
21 | RKLEISSRFKHRQEIFK [GAL11] | 3.09 ± 0.051
22 | RKLINYTKKHLSSHSST [RPN4] | 1.28 ± 0.04
23 | RKLMEMENILQRCKSNA [YIL149C/MLP2] | 1.38 ± 0.095
24 | RKQIQLLKKIIFEKELM [SRB4] | 2.03 ± 0.034
25 | RKRKCGHTNQLRPKKKL [RPL40A] | 3.033 ± 0.026
26 | RKRPVPKGATYGKPTNQ [RPL15A] | 3.45 ± 0.14

Row | Sequence | protein stability index
27 | RKVRTKKWKKYWQYKAG [SWP82] | 2.04 ± 0.058
28 | RKVSGPRALQPSQFGML [RET1] | 2.56 ± 0.09
29 | RLASEPGIISITSLQDS [YMR129W/POM152] | 1.82 ± 0.051
30 | RLEFDQDRDRFFLRDTL [SNF5] | 3.4 ± 0.061
31 | RLELAGQLISLLFEDLF [RET1] | 2.91 ± 0.075
32 | RLFIKPGQKMSLFSHRK [BRN1] | 3.02 ± 0.12
33 | RLGGDDLRIRIKLDIVV [SNF5] | 1.29 ± 0.099
34 | RLIDSMKQYSYLMDSKN [RRI1] | 2.87 ± 0.18
35 | RLNTVTRVHQLMLEDAV [MCD1] | 2.32 ± 0.095
36 | RLQAANSMEYTGKITKM [CDC53] | 2.73 ± 0.064
37 | RLQGIKLLDNIQEYQLC [COR1] | 2.34 ± 0.063
38 | RLRQFNLQPISTPENVP [SMC4] | 1.73 ± 0.052
39 | RLTAKRLIEHDPVEGNL [SRP14] | 2.16 ± 0.045
40 | RMLEEAIDHLKAELEKQ [YIL149C/MLP2] | 3.12 ± 0.053
41 | RMLSFEDISKATHLPKD [RPN9] | 3.02 ± 0.055
42 | RNILHNTVPQVTNFNST [SRB5] | 2.44 ± 0.035
43 | RNKSAANNDINSLLSNF [YDL088C/ASM4] | 3.02 ± 0.056
44 | RNNVANKQPRNESFNRR [YAR002W/NUP60] | 3.24 ± 0.14
45 | RNQILVSITDAPKIHIL [YMR129W/POM152] | 1.61 ± 0.038
46 | RNRDIALFQPPNFDWDL [ROX3] | 2.98 ± 0.11
47 | RNTMMIQCQIDKLYIHF [RGR1] | 2.19 ± 0.041
48 | RNVLSASLDGTIRLWEC [RPN14] | 2.82 ± 0.043
49 | RPDLIKEDHPLEFYKDK [SIR3] | 3.08 ± 0.074
50 | RPFDSFGKLLQAYQFLN [ITC1] | 1.64 ± 0.053
51 | RPSFQNNRISNANEISA [SWP82] | 2.47 ± 0.054

Row | Sequence | protein stability index
52 | RQFVSNVRSVIRSSRSR [RPP1] | 3.09 ± 0.06
53 | RQLTSLGSKKELGISLE [SNU114] | 3.36 ± 0.062
54 | RQNRRPELGDKFSSRHG [RET1] | 2.63 ± 0.21
55 | RQQYYSGVQVGGVGSMG [SNF6] | 2.24 ± 0.056
56 | RRADVKTATVKINKKLN [RPL38] | 1.62 ± 0.039
57 | RRFKNGFQTGSASKASA [RPL37A] | 2.88 ± 0.043
58 | RRFYKNWYKSKKKAFTK [RPL3] | 1.78 ± 0.08
59 | RRIIQNAQQTFHIDHTK [RPO21] | 2.89 ± 0.066
60 | RRIPKRMRNRALREMRK [POP1] | 2.88 ± 0.13
61 | RRLDALVEKVYARFKND [ITC1] | 2.29 ± 0.097
62 | RRRDFGAPANKRPRRGL [SMD1] | 3.29 ± 0.089
63 | RRRDGVFLYFEDNAGVI [RPL23A] | 2.9 ± 0.056
64 | RRRLLGPAAAKPMAFSN [MTR3] | 3.21 ± 0.038
65 | RRTNTPIGRDGKLAKPR [RPB2] | 2.96 ± 0.1
66 | RRYDRKQSGFGGQTKPV [RPL42A] | 3.148 ± 0.029
67 | RSEDPAGLGKTNELWAR [YGR119C/NUP57] | 3.4 ± 0.088
68 | RSLATAVATPKAEVTQL [COR1] | 2.89 ± 0.042
69 | RSQDQENPAFLPGTNNN [SEC65] | 2.8 ± 0.064
70 | RSRNGGATKIVREHYLR [DIS3] | 3.2 ± 0.099
71 | RSWNEPSKSQTNFKEEI [YML103C/NUP188] | 3.11 ± 0.075
72 | RSWTLTSEMKVLSIPPA [YGL100W/SEH1] | 2.1 ± 0.072
73 | RTKSQVIEEDYDDEQNT [IRR1] | 1.83 ± 0.16
74 | RTSATREDTPLSQNEST [ISW2] | 2.96 ± 0.05
75 | RTWYESFCGFLLYYIPS [YJR042W/NUP85] | 1.99 ± 0.057
76 | RVGVKLKFNSTEYRGTL [SMX3] | 3.02 ± 0.094

Row | Sequence | protein stability index
77 | RVKDIHLRKLLDGELDF [RET1] | 3.02 ± 0.041
78 | RVKVHFDQAGKKVSRRN [RPL13A] | 3.31 ± 0.079
79 | RVNNPNVSLIKIEGVAT [RPL33A] | 2.49 ± 0.048
80 | RVVTVDGKLIDISGTMS [SMC4] | 3.52 ± 0.12
81 | RYLAVTLQDIGFYQIKK [YMR129W/POM152] | 2.62 ± 0.043
82 | RYLTLLSNEFTATNSKG [ECM29] | 2.83 ± 0.052
83 | RYNRAVPDSKIRIYDLG [RPL10] | 2.55 ± 0.1
84 | RYVNLLGVTYSSPTLAT [PRE4] | 1.1 ± 0.12
85 | SAASKKKKNKNKGKKKR [SRP21] | 3.22 ± 0.056
86 | SADCELLGIDATVPSGR [RPO31] | 3.32 ± 0.081
87 | SAEDQLYAITFRKGLGN [QCR2] | 3.03 ± 0.17
88 | SAEEQLRKIDMLQKKLV [SRB7] | 2.62 ± 0.043
89 | SAFACKTDEVIILGTNL [BRR2] | 2.9 ± 0.035
90 | SAGLFGSKPAGGTSLFG [YGL172W/NUP49] | 2.66 ± 0.047
91 | SAGRIESNNPSHDASRS [SIR4] | 2.98 ± 0.17
92 | SAIDEEIEELIDSINGP [SMC3] | 2.42 ± 0.24
93 | SAIIENAFRKEELLLKD [GAL11] | 1.18 ± 0.22
94 | SAIRQVFERFKTKILEV [IRR1] | 2.26 ± 0.05
95 | SAISVTNVEDPLAKKQT [SIR2] | 3.2 ± 0.21
96 | SANERLFGNRPSMMAPL [YML031W/NDC1] | 3.03 ± 0.089
97 | SAPIYVDIEYTRGRNII [RET1] | 2.86 ± 0.1
98 | SAQAETEALLLEHDVEY [DIS3] | 3.15 ± 0.066
99 | SAQQNLASSFVNGFLNL [RPN1] | 2.75 ± 0.068
100 | SASLKKIQQHNTILNSS [BRR2] | 2.81 ± 0.041
